Data on 3 molecules can be found in patent US20080306007A1 (NEWCASTLE INNOVATION, published 2008).

The target of test [1] is T1, syndapin I (native, from rat brain lysate or synaptosomes) (rat, UniProt Q9Z0W5 1-441).
T1 construct: also called PACSIN I; 52 kDa band
Briefly: GST pull-down from rat brain lysate.

Test [2] deals with T2, endophilin I (native, from rat brain lysate or synaptosomes) (rat, UniProt O35179 1-352).
T2 construct: mature
The test is described as follows: peptide competition in GST-DynI-PRD pull-down from rat brain lysate, Western blot. On the procedure: Total rat brain extract was prepared by homogenising brain tissue in ice-cold lysis buffer (1% Triton X-100, 150 mM NaCl, 25 mM Tris pH 7.4, 1 mM EDTA, 1 mM EGTA, 20 μg/ml leupeptin, 1 mM phenylmethylsulfonyl fluoride and EDTA-free Complete protease inhibitor (Roche)). The homogenate was centrifuged twice at 75,600 g for 30 min at 4° C. The supernatant was pre-cleared by addition of GSH-sepharose beads for 1 h, pelleted at 50 g for 5 min at 4° C., and the supernatant collected. GST-DynI-PRD recombinant proteins were then incubated with an equal amount of tissue lysate at 4° C. for 1 h. Beads were washed extensively with ice-cold 20 mM Tris pH 7.4 containing 1 mM EGTA, eluted in 2×SDS-PAGE sample buffer, resolved on 7.5-15% gradient SDS gels and stained with colloidal Coomassie Blue. Identification of proteins was by matrix-assisted laser desorption ionization time-of-flight mass spectrometry (MALDI-TOF MS). Some peptides were sequenced by tandem MS/MS.
A common characteristic of most binding sites for SH3 domains is the presence of the core amino acid motif PxxP, which is often followed or preceded by a basic Arg residue. There are 13 such motifs in the dynamin I PRD (numbered from site 1 at the N-terminus of the PRD at Pro-753 in dynamin I). […]

Changes are numbered by the printed parent chain.

T1 sequence (Q9Z0W5 whole entry): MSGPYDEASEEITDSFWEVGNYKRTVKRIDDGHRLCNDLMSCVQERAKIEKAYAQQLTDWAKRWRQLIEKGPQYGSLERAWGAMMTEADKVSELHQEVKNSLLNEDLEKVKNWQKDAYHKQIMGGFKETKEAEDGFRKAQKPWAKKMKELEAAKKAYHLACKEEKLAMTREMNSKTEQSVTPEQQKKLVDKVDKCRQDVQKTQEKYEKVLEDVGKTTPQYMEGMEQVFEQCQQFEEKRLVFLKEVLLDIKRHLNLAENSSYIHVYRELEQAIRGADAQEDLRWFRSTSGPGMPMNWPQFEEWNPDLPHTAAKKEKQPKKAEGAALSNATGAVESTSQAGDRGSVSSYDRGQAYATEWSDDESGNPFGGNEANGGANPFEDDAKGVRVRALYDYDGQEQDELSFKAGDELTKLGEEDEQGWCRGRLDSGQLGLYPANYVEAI
T2 sequence (O35179 whole entry): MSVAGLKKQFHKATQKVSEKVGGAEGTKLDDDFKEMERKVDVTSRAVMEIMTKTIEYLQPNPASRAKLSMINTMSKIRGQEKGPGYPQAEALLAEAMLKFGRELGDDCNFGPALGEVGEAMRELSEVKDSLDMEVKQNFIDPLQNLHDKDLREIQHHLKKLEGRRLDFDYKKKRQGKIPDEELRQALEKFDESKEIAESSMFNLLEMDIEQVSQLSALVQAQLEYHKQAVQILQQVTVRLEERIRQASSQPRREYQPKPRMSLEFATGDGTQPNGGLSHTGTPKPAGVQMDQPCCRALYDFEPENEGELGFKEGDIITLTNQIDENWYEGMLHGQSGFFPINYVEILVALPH

B1: GST-DynI-2D (other, rat, UniProt P21575 746-864, looked up)
chain: NTTTVSTPMPPPVDDSWLQVQSVPAGRRSPTSSPTPQEEAPAVPPARPGSRGPAPGPPPAGSALGGAPPVPSRPGASPDPFGPPPQVPSRPNRAPPGVPSRSGQASPSRPESPRPPFDL
notes: range 746-864; not shown: glutathione S-transferase tag from vector pGEX4T-1
With B1, the binding result in test [1] is given as “no binding”.

B2: GST-DynI-2E (other, rat, UniProt P21575 746-864, looked up)
chain: B1 chain with E38A, E39A
notes: as for B1
In the case of B2, in test [1], the binding result is given as “no binding”.

B3: DynI783-796 peptide (peptide)
peptide: RRAPAVPPARPGSR
notes: Synthetic peptide of the site 2 and site 3 region of dynamin I
For B3, the “fold weaker inhibitory effect than on syndapin I binding” value in test [2] came to 5 fold.
